Test results published in patent publication US20230312724A1 (KADMON, published 2023).
Where two headings read alike, the source gives them in different places. One block for each binder: values may come before it.

Tests used:
mouse B7-H4-Fc [1] = target: T1, mouse B7-H4-Fc (mouse; human); test: ELISA, coated mB7-H4-Fc (title on the sheet: Binding to mB7H4-Fc)
T1 construct: also called mB7-H4-Fc; mB7-H4-hFc
Protocol: ELISA experiments were performed to determine binding to hB7-H4-Fc (FIG. 4A), hB7-H4-his (FIG. 4B), hB7-H4 IgV domain (FIG. 4C), and mB7-H4 IgV domain (FIG. 4D). Flow cytrometry experiments were performed to determine binding to CHO cells expressing hB7-H4 (FIG. 4E) or mB7-H4 (FIG. 4F). […] A cross-reactive IgV binding antibody was used as a control.
(§1) About 1-2 μg/ml of human or mouse B7-H4-Fc (or his-tagged) was immobilized on ELISA plates (Immuno 2HB, Thermo scientific, cat #3455) at 4° C. overnight. After blocking the plates with 3% PBS+milk, serial diluted antibodies were added to the blocked plates and incubated at RT for 1-1.5 h. After washing the plates with PBS-T (0.05%), horse radish peroxidase (HRP)-conjugated antibody targeting the hFab was added to the plate. Signals were developed by adding 3,3′,5,5′-Tetramethylbenzidine (TMB (followed 1N of H₂SO₄ to stop the reaction. The OD at 450 nm was read by ELISA plate reader (Infinite M1000 from TECAN). GraphPad from Prism was used to plot OD450 vs. antibody concentration curve and to calculate the EC50 values.

[2] = target: T2, IgV domain of human B7-H4-Fc (human); test: ELISA, coated hB7-H4 IgV domain
T2 construct: also called hB7-H4 IgV domain
T2 sequence (chain, as listed by the source): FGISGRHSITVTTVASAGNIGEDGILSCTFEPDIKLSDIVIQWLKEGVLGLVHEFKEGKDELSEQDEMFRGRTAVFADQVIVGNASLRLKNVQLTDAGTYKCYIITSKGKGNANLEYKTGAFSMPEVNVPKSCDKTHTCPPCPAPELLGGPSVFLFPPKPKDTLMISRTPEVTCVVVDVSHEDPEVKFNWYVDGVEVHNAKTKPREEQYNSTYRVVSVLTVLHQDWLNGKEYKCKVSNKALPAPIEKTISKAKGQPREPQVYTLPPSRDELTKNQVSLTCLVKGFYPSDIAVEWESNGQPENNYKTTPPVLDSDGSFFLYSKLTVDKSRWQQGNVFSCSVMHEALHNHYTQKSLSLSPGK
Outline: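 Antibody titrations were applied for 1-1.5 h at RT to wells precoated (4° C overnight) with roughly 1-2 μg/ml human or mouse B7-H4-Fc or his-tagged protein, then blocked with 3% PBS+milk. Detection used HRP anti-hFab and TMB at OD450; EC50 from the curve.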

mouse B7-H4-Fc [3] = target: T1, mouse B7-H4-Fc; test: ELISA, coated mB7-H4-Fc
Protocol: ELISA experiments were performed to determine binding to hB7-H4-Fc (FIG. 5A), hB7-H4-his (FIG. 5B), mB7-H4-Fc domain (FIG. 5C), hB7-H4 IgV domain (FIG. 5D), and hB7-H4 IgC domain (FIG. 5E). Flow cytrometry experiments were performed to determine binding to CHO cells expressing hB7-H4 (FIG. 5F) or mB7-H4 (FIG. 5G). […] A cross-reactive IgV binding antibody and an IgC binding antibody were used as controls.
as §1

human B7-H4-Fc = target: T3, human B7-H4-Fc (human); test: ELISA on coated hB7-H4-Fc
T3 construct: also called hB7-H4-Fc; hB7-H4 Fc
T3 sequence (chain, as listed by the source): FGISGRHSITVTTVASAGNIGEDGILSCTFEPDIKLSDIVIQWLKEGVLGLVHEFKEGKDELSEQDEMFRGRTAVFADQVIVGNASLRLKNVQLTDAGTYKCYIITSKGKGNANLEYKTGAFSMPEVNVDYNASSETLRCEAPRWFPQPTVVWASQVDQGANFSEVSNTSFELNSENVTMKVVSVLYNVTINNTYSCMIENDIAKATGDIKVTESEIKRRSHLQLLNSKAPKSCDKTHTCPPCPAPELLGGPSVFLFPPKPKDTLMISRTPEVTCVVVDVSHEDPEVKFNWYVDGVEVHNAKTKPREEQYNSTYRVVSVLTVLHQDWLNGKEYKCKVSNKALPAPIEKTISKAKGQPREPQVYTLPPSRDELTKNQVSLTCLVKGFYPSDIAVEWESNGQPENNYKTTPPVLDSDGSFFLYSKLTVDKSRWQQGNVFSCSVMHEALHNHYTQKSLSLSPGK
Protocol: as §1

[4] = target: T2, IgV domain of human B7-H4-Fc; test: ELISA, coated hB7-H4 IgV domain; remark: listed apart in the source
[5] = target: T4, human B7-H4 expressed on cells (human, UniProt Q7Z7D3 25-282); test: flow cytometry on SK-BR-3 cells
T4 construct: Transfected CHO cells or tumor cell lines that carry hB7-H4; also called cellular hB7-H4
T4 sequence: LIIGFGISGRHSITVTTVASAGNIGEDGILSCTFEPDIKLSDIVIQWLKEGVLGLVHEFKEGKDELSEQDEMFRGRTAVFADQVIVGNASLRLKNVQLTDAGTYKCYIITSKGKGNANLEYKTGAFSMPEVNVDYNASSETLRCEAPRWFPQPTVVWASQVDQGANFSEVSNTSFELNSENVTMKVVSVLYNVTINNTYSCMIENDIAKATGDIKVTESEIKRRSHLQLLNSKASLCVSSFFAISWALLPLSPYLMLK
Protocol: (§2) Cells were harvested, washed once, and then re-suspended to the concentration of 1×10⁶ cells/ml in ice cold FACS Buffer. 25 μl of cell suspension was added to each well of a 96-well round-bottom microliter plate. Serially diluted antibodies or fusion proteins were added to each well and incubated for 1 hour at 4° C. Cells were washed three times by centrifugation at 1500 rpm for 5 minutes, and then stained with secondary antibody (1:200 dilution) for 30 min at 4° C. in the dark. Cells were washed once, re-suspended in 100 μl PBS buffer and then analyzed using Guava Flow Cytometry EasyCyte system.

[6] = target: T4, human B7-H4 expressed on cells; test: flow cytometry, MX-1 cells
Protocol: as §2

[7] = target: T4, human B7-H4 expressed on cells; test: flow cytometry, SK-BR-3 cells
Outline: (§3)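 Binding titrations: test proteins in serial dilution incubated on cells for 1 h at 4 °C in ice-cold FACS buffer. Detection with secondary antibody diluted 1:200.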

[8] = target: T5, mouse B7-H4 expressed on cells (mouse, UniProt Q7TSP5 25-257); test: flow cytometry, mB7-H4/CT26 cells
T5 construct: also called cellular mB7-H4; mB7-H4/CT26
T5 sequence: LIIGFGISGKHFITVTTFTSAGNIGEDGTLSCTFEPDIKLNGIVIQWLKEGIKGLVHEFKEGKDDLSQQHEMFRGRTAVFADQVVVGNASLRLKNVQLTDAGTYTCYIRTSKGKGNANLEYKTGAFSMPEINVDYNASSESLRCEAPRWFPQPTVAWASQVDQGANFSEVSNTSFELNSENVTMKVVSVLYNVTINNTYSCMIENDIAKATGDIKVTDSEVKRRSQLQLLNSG
Outline: as §3

T1 sequence (chain, as listed by the source): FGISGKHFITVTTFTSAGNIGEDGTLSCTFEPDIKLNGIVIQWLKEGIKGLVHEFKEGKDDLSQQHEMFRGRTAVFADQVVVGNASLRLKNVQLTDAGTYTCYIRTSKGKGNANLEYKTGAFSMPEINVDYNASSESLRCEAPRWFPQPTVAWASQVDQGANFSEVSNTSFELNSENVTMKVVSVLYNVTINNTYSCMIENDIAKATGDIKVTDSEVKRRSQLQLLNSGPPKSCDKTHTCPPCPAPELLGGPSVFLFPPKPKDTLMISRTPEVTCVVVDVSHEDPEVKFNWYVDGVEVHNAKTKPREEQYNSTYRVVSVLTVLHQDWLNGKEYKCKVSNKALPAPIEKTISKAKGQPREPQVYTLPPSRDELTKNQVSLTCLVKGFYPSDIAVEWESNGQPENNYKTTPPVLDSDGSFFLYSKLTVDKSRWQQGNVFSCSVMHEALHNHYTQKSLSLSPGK

- EC50 (read off the curve) (mouse B7-H4-Fc [1]): ~0.02 µg/mL
- EC50 (read off the curve) [2]: ~0.2 nM
- EC50 (read off the curve) (mouse B7-H4-Fc [3]): ~0.1 nM
- EC50 (read off the curve) (human B7-H4-Fc): ~0.1 nM
B1: Control antibody 1 (antibody 20502 described in US20190085080A1) (antibody, V domains shown)
VH: QLQLQESGPGLVKPSETLSLTCTVSGGSIKSGSYYWGWIRQPPGKGLEWIGNIYYSGSTYYNPSLRSRVTISVDTSKNQFSLKLSSVTAADTAVYYCAREGSYPNQFDPWGQGTLVTVSS
VL: EIVMTQSPATLSVSPGERATLSCRASQSVSSNLAWYQQKPGQAPRLLIYGASTRATGIPARFSGSGSGTEFTLTISSLQSEDFAVYYCQQYHSFPFTFGGGTKVEIK
notes: also called (+) control Ab1; (+) Ab1

- EC50 (read off the curve) [4]: ~0.1 nM
- EC50 (read off the curve) [5]: ~2 nM
- EC50 [6]: 8.87 nM
- EC50 [7]: 1.9 nM
- EC50 [8]: 1.22 nM
B2: 39A11/57G8 (antibody, human IgG1, V domains shown)
VH: EVQLLESGGGLVQPGGSLRLSCAASGFTFSSYGMHWVRQAPGKGLEWVASISSSSGYIYYADSVKGRFTISRDNSKNTLYLQMNSLRAEDTAVYYCARASSGMDVWGQGTTVTVSS
VL: DIQMTQSPSSLSASVGDRVTITCRASQSIRSYLNWYQQKPGKAPKLLIYYASSLQSGVPSRFSGSGSGTDFTLTISSLQPEDFATYYCQQYYSTPLTFGQGTKVEIK
notes: 39A11 VH with 57G8 VL
